Test results reported in patent US20140057807A1 (UNIVERSITY OF CHICAGO, published 2014).

T1: human Abl SH2 domain (human, UniProt P00519 112-232, limits assumed)
T1 construct: domain: SH2 domain; poly-histidine tagged in selection; tag cleaved for SPR and crystals; also called Ab1SH2; SH2 domain of Abl kinase
T1 sequence (looked up): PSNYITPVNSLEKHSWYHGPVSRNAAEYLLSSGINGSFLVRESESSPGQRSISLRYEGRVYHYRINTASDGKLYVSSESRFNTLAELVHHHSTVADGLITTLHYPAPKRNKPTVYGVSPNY


Columns and labels:
human Abl SH2 domain [1] = molecular target: T1, human Abl SH2 domain; assay: method not given
human Abl SH2 domain [2] = molecular target: T1, human Abl SH2 domain; assay: Kd (nM) column of the drawn table; the method for this clone is not stated (SH13 came directly from the phage display library)
[3] = molecular target: T2, yeast small ubiquitin-like modifier protein (yeast, UniProt Q12306 3-98 = SUMO); assay: SPR (monobody on the chip via His-tag, target flowed); estimated Kd
T2 construct: GST fusion in most phage ELISAs, His-tagged or tag-cleaved elsewhere; also called ySUMO; yeast SUMO
T2 sequence (Q12306 3-98 limits assumed): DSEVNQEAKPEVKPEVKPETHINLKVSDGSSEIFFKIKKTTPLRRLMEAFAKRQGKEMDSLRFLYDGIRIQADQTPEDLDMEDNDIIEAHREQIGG
Experimental: (§1) Cradle molecules purified as described above were immobilized via His-tag to an NTA surface using a Biacore™ 2000 instrument so that the theoretical maximum response (Rₘₐₓ) from target binding was 100-200 RU. Target protein at varying concentrations was then flowed over the surface at a flow rate of 30 μL/min and the binding signal recorded. Fitting of kinetic traces was carried out using the BIAevaluation software. For equilibrium experiments, the equilibrium binding response was recorded for multiple target concentrations and fit to a simple 1:1 saturation binding curve.

[4] = molecular target: T2, yeast small ubiquitin-like modifier …; assay: SPR (Biacore 2000), monobody immobilised via His-tag on NTA surface, ySUMO flowed over it
Experimental: as §1

[5] = molecular target: T2, yeast small ubiquitin-like modifier …; assay: SPR
Source text: Such high selectivity was unexpected, because the SIM-binding site is the most highly conserved surface between ySUMO and hSUMO proteins (FIG. 16A). […] Thus, it was expected that generating FnIII domain variants that bind to hSUMOs in a mode similar to the ySUMO-binding FnIII domain variants would yield clones with higher isoform selectivity toward hSUMOs.
as §1

[6] = molecular target: T2, yeast small ubiquitin-like modifier …; assay: SPR, fit of the traces to a 1:1 binding model [panel D]
Experimental: as §1

| Binder | Kd (human Abl SH2 domain [1]) [nM] | Kd (human Abl SH2 domain [2]) [nM] | Kd [3] [nM] | Kd [4] [nM] | Kd [5] [nM] | koff [6] [s⁻¹] | kon [6] [M⁻¹ s⁻¹] |
| --- | --- | --- | --- | --- | --- | --- | --- |
| SH13 (designed binder, also called SH13 monobody) VSSVPTKLEVVAATPTSLLISWDAPAVDFYVYLITYGETGGNSPVQEFTVPGSKSTATISGLSPGVDYTITVYGYSDSWNWPYSPISINYRT | ~4000 | 6800 | – | – | – | – | – |
| ySMB-1 (designed binder, it may hold only the diversified positions and not the whole FnIII domain; BC and DE loops are polyserine; also called monobody ySMB-1; FnIII domain variant ySMB-1) VSSVPTKLEVVAATPTSLLISWDASSSSVSYYRITYGETGGNSPVQEFTVPGSSSTATISGLSPGVDYTITVYAYYSYYDLYYSYSPSSINYRT | – | – | 72 | 72 | 82 | 0.09 | 1.1e+06 |
